Experiment [1] concerns the target T1, CD16V protein (extracellular portion of CD16A V158 with C-terminal FLAG sequence) (human, UniProt P08637 19-208).
T1 construct: Soluble protein from ExpiCHO-S cells, purified on anti-FLAG gel
In words: ELISA: EpCAM coated, anti-EpCAM antibody captured, FLAG-tagged CD16V protein titrated, anti-FLAG-HRP detection.
Procedure: (§1) After incubation at room temperature for one hour, the plate was washed with TBS-T. Next, 20 μL of horseradish peroxidase-labeled anti-FLAG (registered trademark) M2 antibody diluted with the diluent was added to each well as a detection antibody. After incubating at room temperature for one hour, the plate was washed with TBS-T. After adding TMB+Substrate-Chromogen and incubating, the reaction was stopped by adding 1M sulfuric acid, and the absorbance at 450 nm and reference wavelength were measured using Infinite 200 PRO.

For experiment [2], the target named is T2, CD16V_K131D (human, UniProt P08637 19-208).
T2 construct: Soluble FLAG-tagged mutant; also called K149D (AAH17865.1 numbering)
The experiment is described as follows: ELISA: EpCAM coated, anti-EpCAM antibody captured, FLAG-tagged CD16V protein titrated from 10 µg/mL, anti-FLAG-HRP detection.
Procedure: as §1

Experiment [3] deals with T3, CD16V_K128E_K131E (human, UniProt P08637 19-208).
T3 construct: Soluble FLAG-tagged mutant
The experiment is described as above.
Procedure: as §1

Experiment [4] deals with T4, CD16V_K131D_N38Q (human, UniProt P08637 19-208).
T4 construct: Soluble FLAG-tagged mutant
The experiment is described as above.
Procedure: as §1

Experiment [5] has as its target T5, CD16V_K128E_K131D (human, UniProt P08637 19-208).
T5 construct: Soluble FLAG-tagged mutant
The description is as above.
Procedure: as §1

Experiment [6] concerns the target T6, CD16V_K131D_N74Q (human, UniProt P08637 19-208).
T6 construct: Soluble FLAG-tagged mutant
The experiment is described as above.
Procedure: as §1

Experiment [7] has as its target T2, CD16V_K131D. In words: ELISA: EpCAM coated, anti-EpCAM antibody captured, FLAG-tagged CD16V protein titrated, anti-FLAG-HRP detection. In general terms: In an ELISA, binding on a coated surface is turned into a signal by an enzyme label.
Procedure: as §1
Experiment [8] addresses T3, CD16V_K128E_K131E. Described as above.
Procedure: as §1
For experiment [9], the target named is T4, CD16V_K131D_N38Q. The description is as above.
Procedure: as §1
Experiment [10] concerns the target T5, CD16V_K128E_K131D. Described as above.
Procedure: as §1
For experiment [11], the target named is T6, CD16V_K131D_N74Q. The description is as above.
Procedure: as §1
The target in experiment [12] is T1, CD16V protein (extracellular portion of …). The experiment is described as follows: ELISA: EpCAM coated, anti-EpCAM antibody captured, FLAG-tagged CD16V protein titrated from 10 µg/mL, anti-FLAG-HRP detection.
Procedure: as §1

T5 sequence (P08637 other isoform, or with tags, fused parts or gaps K128E K131D K128E K131D): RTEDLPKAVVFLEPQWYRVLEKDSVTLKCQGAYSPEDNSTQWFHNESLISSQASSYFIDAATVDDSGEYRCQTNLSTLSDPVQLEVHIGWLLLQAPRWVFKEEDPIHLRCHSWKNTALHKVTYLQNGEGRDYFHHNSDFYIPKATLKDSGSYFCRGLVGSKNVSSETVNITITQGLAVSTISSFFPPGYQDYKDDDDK
T2 sequence (P08637 other isoform, or with tags, fused parts or gaps K131D K131D): as the sequence (P08637 other isoform, or with tags, fused parts or gaps K128E K131D K128E K131D) above, with E128K counted along it
T6 sequence (P08637 other isoform, or with tags, fused parts or gaps K131D N74Q K131D N74Q): as the sequence (P08637 other isoform, or with tags, fused parts or gaps K128E K131D K128E K131D) above, with N74Q, E128K counted along it
T4 sequence (P08637 other isoform, or with tags, fused parts or gaps K131D N38Q K131D N38Q): as the sequence (P08637 other isoform, or with tags, fused parts or gaps K128E K131D K128E K131D) above, with N38Q, E128K counted along it
T1 sequence (P08637 other isoform, or with tags, fused parts or gaps): as the sequence (P08637 other isoform, or with tags, fused parts or gaps K128E K131D K128E K131D) above, with E128K, D131K counted along it
T3 sequence (P08637 other isoform, or with tags, fused parts or gaps K128E K131E K128E K131E): as the sequence (P08637 other isoform, or with tags, fused parts or gaps K128E K131D K128E K131D) above, with D131E counted along it

B1: Fc_RK type anti-EpCAM antibody (antibody, human IgG1, kappa)
heavy: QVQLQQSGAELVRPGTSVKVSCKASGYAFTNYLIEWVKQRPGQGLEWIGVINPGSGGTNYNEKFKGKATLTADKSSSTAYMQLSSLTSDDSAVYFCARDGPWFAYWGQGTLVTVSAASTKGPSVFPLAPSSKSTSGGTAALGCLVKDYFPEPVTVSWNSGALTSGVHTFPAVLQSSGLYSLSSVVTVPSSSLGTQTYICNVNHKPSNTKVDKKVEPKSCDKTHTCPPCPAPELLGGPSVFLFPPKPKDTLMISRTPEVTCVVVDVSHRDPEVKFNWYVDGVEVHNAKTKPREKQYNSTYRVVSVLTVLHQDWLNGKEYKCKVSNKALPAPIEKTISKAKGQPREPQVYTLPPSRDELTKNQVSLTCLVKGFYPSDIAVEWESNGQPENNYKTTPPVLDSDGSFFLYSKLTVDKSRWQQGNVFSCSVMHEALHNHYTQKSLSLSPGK
light: NIVMTQSPKSMSMSVGERVTLTCKASENVVTYVSWYQQKPEQSPKLLIYGASNRYTGVPDRFTGSGSATDFTLTISSVQAEDLADYHCGQGYSYPYTFGGGTKLEIKRTVAAPSVFIFPPSDEQLKSGTASVVCLLNNFYPREAKVQWKVDNALQSGNSQESVTEQDSKDSTYSLSSTLTLSKADYEKHKVYACEVTHQGLSSPVTKSFNRGEC
Regarding B1, the binding result in experiment [1] is “no binding (tested: CD16V protein up to 10 µg/mL)”; with CD16V_K131D [2], “binds”; with CD16V_K128E_K131E [3] it was “binds”; with CD16V_K131D_N38Q [4] it was “binds”; with CD16V_K128E_K131D [5] it was “binds”; with CD16V_K131D_N74Q [6], “binds”.

B2: Fc_wt type anti-EpCAM antibody (antibody, human IgG1, kappa)
heavy: not shown
light: NIVMTQSPKSMSMSVGERVTLTCKASENVVTYVSWYQQKPEQSPKLLIYGASNRYTGVPDRFTGSGSATDFTLTISSVQAEDLADYHCGQGYSYPYTFGGGTKLEIKRTVAAPSVFIFPPSDEQLKSGTASVVCLLNNFYPREAKVQWKVDNALQSGNSQESVTEQDSKDSTYSLSSTLTLSKADYEKHKVYACEVTHQGLSSPVTKSFNRGEC
notes: also called edrecolomab variable regions on human Igγ1
In the case of B2, the binding result is “no binding (tested: CD16V protein up to 10 µg/mL)” in the experiment with CD16V_K131D [7]; “no binding (tested: CD16V protein up to 10 µg/mL)” with CD16V_K128E_K131E [8]; “no binding (tested: CD16V protein up to 10 µg/mL)” with CD16V_K131D_N38Q [9]; “no binding (tested: CD16V protein up to 10 µg/mL)” in the experiment with CD16V_K128E_K131D [10]; “no binding (tested: CD16V protein up to 10 µg/mL)” with CD16V_K131D_N74Q [11]; “binds” in experiment [12].

B3: Fc_RR type anti-EpCAM antibody (antibody, human IgG1, kappa)
heavy: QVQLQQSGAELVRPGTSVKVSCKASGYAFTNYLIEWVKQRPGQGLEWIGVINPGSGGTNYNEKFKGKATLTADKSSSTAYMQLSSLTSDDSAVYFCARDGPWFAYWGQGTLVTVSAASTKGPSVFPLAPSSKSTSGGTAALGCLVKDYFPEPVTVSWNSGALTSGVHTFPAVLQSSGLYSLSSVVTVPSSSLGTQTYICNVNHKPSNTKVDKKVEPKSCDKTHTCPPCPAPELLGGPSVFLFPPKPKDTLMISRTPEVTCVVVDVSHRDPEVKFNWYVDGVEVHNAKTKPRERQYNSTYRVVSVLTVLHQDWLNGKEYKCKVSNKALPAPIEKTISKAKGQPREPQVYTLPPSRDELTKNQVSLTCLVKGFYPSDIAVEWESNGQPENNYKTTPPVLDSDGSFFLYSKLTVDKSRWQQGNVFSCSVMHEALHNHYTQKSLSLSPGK
light: NIVMTQSPKSMSMSVGERVTLTCKASENVVTYVSWYQQKPEQSPKLLIYGASNRYTGVPDRFTGSGSATDFTLTISSVQAEDLADYHCGQGYSYPYTFGGGTKLEIKRTVAAPSVFIFPPSDEQLKSGTASVVCLLNNFYPREAKVQWKVDNALQSGNSQESVTEQDSKDSTYSLSSTLTLSKADYEKHKVYACEVTHQGLSSPVTKSFNRGEC
For the molecule B3, the binding result in experiment [1] was “no binding (tested: CD16V protein up to 10 µg/mL)”; with CD16V_K131D [2] it was “binds”; with CD16V_K128E_K131E [3], “binds”; with CD16V_K131D_N38Q [4], “binds”; with CD16V_K128E_K131D [5] it was “binds”; with CD16V_K131D_N74Q [6], “binds”.
